We go through one molecule from PMC4086275, “Cryo-EM structure of the Plasmodium falciparum 80S ribosome bound to the anti-protozoan drug emetine” (eLife, 2014).

The test addresses T1, eL8, ribosomal protein of the Pf60S subunit (P. falciparum (3D7 strain), UniProt Q8ILL2 1-283).
T1 construct: eL8 of the P. falciparum 3D7 cytoplasmic ribosome; total number of residues 283; built residues 40-46, 54-131, 147-283; extensions compared to human 11-24 and 279-283; Native protein as part of the whole 80S ribosome; also called Q8ILL2_PLAF7; PF3D7_1424400; source: endogenous, in Pf80S ribosomes purified from P. falciparum 3D7 parasites (sucrose cushion, 10-40% sucrose gradient)
T1 sequence (looked up): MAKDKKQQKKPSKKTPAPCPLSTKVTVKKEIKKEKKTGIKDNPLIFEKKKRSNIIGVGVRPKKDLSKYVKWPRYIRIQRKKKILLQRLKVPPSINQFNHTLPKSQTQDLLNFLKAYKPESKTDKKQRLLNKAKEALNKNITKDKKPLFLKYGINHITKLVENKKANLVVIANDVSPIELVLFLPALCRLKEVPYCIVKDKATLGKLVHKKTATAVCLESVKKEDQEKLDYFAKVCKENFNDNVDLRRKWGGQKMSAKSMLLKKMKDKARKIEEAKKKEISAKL
The test is described as follows: cryo-EM structure; native Pf80S ribosome purified from parasites, 160 nM, incubated with 1 mM emetine for 15 min at 25°C in 20 mM Hepes pH 7.4, 40 mM KCH3COO, 10 mM NH4CH3COO, 10 mM Mg(CH3COO)2, 5 mM 2-mercaptoethanol; 3.2 Å overall; the two proteins are members of the co-purified ribosome. To be noted: both partners purified.

B1: eS1, ribosomal protein of the Pf40S subunit (natural protein, P. falciparum (3D7 strain), UniProt O97313 1-262, looked up)
chain: MAVGKNKRTSKGKKGGKKKVTDVFTKKEWYDLKAPKMFLVRNFGKTLVTKTIGKKLATDSLKGRIYEVNLADLNNDEDQAHKKIKLSCDHIINRDCYTDFCGLSITRDKLCSLIRKGYTLIEGHTDVKTLDNYHLRMFCIAFTKKRQNQTKSTCYAQTSQIKKIRKKMVDIMTAEASKVLLKDLVKKFIPESIGKEIEKQCKKIYPLQNVLIRKVKILKRPKLDISKLMELHTDPKEESGKNVNALPESKEATNILTAELKH
notes: eS1 of the P. falciparum 3D7 cytoplasmic ribosome; total number of residues 262; built residues 24-233; extension compared to human 245-262; Native protein as part of the whole 80S ribosome; also called PF3D7_0322900; source: endogenous, in Pf80S ribosomes purified from P. falciparum 3D7 parasites (sucrose cushion, 10-40% sucrose gradient)
In the case of B1, the binding result was “binds”.
